The source of these data is paper PMC11098083.

In this data set the target is GST-Pol32 (Saccharomyces cerevisiae (budding …, UniProt P47110 1-350)). In words: EMSA. For orientation: In EMSA bound probe runs differently from free probe, usually more slowly.
Chain of GST-Pol32 (Saccharomyces cerevisiae (P47110 whole entry): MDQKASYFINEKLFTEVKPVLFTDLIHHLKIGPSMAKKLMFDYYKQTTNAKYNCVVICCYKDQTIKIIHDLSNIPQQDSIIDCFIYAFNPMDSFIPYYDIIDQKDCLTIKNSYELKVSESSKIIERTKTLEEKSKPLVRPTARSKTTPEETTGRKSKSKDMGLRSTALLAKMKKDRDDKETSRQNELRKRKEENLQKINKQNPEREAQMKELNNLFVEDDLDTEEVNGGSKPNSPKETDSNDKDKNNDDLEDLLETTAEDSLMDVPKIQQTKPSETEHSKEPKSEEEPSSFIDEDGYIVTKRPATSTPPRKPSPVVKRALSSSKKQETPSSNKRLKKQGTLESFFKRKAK

B1: 58bp DNA (dsDNA)
DNA 1: ATACATTTTATGACTGGAAACTTTTTTGTACAACACTCCAATAAACATTTTGATTTTA
DNA 2: TAAAATCAAAATGTTTATTGGAGTGTTGTACAAAAAAGTTTCCAGTCATAAAATGTAT
Regarding B1, the binding result is “binds”.
